# PMC4428384, “Differences in conformational dynamics within the Hsp90 chaperone family reveal mechanistic insights” (Frontiers in Molecular Biosciences, 2014)
# B1: hHsp90β-E20C,C366A,C412T,C521A,C564T,C589A,C590A, labeled with ATTO 488 or ATTO 550 (natural protein)
# chain: not shown
# modifications: ATTO 488 maleimide or ATTO 550 maleimide on the single cysteine (E20C)
# notes: human Hsp90β; single cysteine variant with the natural cysteines replaced; Homodimeric protein; the rows are protomer with protomer
# Assays:
# [1] = biological target: the molecule itself; test: FRET or BRET; subunit exchange as in a1, in the presence of ATP
# [2] = biological target: the molecule itself; test: FRET or BRET; subunit exchange, dimer to monomers: ATTO 488 and ATTO 550 labeled proteins combined (400 nM each), rapidly mixed 1:1 with unlabeled protein (20 μM) in a stopped-flow device, 480 nm excitation, 590 nm cut-off filter; no nucleotide (apo)
# [3] = biological target: the molecule itself; test: FRET or BRET; subunit exchange as in a1, in the presence of ADP
protein,measurement,setting,value
B1,subunit exchange rate,[1],0.01 s⁻¹
same,subunit exchange rate,[2],0.016 s⁻¹
same,subunit exchange rate,[3],0.016 s⁻¹
